Assay results reported in patent publication US20180022822A1, “NOVEL ANTI-FIBROBLAST ACTIVATION PROTEIN (FAP) BINDING AGENTS AND USES THEREOF” (Mabimmune Diagnostics AG, priority 2016, published 2018).

T1: transmembrane human FAP on FAP expressing HEK293 cells (Homo sapiens, UniProt Q12884)
T1 construct: HEK293 cells were transduced with retrovirus encoding full length human FAP cDNA; host or cells: HEK293 (retroviral transduction, G418 selected)
T1 sequence (Q12884 1-760): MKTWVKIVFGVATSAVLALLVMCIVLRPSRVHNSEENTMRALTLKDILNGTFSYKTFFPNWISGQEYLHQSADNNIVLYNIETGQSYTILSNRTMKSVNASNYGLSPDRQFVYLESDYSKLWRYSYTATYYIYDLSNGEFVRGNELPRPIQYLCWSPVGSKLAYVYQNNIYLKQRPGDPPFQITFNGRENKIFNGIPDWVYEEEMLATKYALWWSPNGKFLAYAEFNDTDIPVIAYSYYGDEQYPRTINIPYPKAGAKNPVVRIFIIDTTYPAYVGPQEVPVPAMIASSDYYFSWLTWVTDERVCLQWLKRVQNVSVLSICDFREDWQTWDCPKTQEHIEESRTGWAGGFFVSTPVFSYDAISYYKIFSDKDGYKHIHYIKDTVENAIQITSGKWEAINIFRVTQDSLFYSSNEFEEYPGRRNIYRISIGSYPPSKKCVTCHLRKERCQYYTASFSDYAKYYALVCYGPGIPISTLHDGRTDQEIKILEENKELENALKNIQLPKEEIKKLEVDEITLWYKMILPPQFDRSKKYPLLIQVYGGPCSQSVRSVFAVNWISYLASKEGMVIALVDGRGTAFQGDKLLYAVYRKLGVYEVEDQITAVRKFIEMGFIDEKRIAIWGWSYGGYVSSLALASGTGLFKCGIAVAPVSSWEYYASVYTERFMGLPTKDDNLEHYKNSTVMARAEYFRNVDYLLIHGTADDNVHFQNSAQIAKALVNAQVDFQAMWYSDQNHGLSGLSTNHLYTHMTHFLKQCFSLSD

T2: directly coated FAP (FAP) (Homo sapiens, UniProt Q12884)
T2 sequence (Q12884 1-760): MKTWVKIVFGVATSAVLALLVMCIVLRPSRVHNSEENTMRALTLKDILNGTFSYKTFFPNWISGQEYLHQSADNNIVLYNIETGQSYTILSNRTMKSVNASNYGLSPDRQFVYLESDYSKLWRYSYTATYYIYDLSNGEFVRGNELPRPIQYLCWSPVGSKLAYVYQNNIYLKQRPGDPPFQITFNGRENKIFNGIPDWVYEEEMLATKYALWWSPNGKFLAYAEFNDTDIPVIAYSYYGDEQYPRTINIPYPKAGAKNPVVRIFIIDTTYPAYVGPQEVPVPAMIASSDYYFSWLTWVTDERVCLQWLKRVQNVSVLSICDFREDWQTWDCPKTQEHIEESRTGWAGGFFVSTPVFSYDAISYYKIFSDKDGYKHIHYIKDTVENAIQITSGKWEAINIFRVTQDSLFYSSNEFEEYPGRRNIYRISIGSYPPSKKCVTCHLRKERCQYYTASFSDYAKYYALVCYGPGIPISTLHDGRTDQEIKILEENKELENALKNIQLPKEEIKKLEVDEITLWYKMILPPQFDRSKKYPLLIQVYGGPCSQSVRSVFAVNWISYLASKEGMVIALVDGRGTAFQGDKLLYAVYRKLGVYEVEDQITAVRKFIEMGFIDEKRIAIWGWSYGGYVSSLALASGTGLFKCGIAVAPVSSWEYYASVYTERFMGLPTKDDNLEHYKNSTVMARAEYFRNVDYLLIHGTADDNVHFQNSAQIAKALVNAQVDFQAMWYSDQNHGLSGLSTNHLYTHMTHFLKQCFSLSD


How the values were obtained:
[1] = target: T1, transmembrane human FAP on FAP expressing HEK293 cells; experiment: flow cytometry of Cy5 labelled antibodies on FAP-HEK293 cells in pH adjusted PBS; type: cell-based; conditions: pH 7.4 to 6.2; 0.1-100 nM Cy5 labelled antibody
Experimental: To evaluate the binding of NI-206.82C2, NI-206.59B4, NI-206.27E8, NI-206.12G4, NI-206.18H2 and NI-206.6D3 to transmembrane human FAP, an FAP expressing HEK293 cell line was received from the National Institutes of Health, Bethesda, Md. The generation of this FAP expressing HEK293 cells is described in: J. Exp. Med. 2013 Vol. 210 No. 6 1125-1135. HEK293 cells were transduced with retrovirus encoding full length human FAP cDNA. Cloning was performed using Fast Cloning Pack and FastDigest restriction enzymes (both from Fermentas). Transient retroviral supernatants were generated by transfecting 293GP cells with the FAP plasmid using Lipofectamine 2000 (Invitrogen). Retroviral supernatants were collected at 48 h after transfection and centrifuged onto Retronectin-coated (10 μg/ml; Takara), non-tissue culture-treated 6-well plates at 2,000 G for 2 h at 32° C. These retroviral supernatants where then used to transduce HEK293 cells overnight. Transduced FAP-HEK293 cells were selected with 1 mg/ml G418 (CellGro).
500′000 FAP-HEK293 cells were incubated for 1 hr at 4° C. either with Cy5 labelled NI-206.82C2, NI-206.59B4, NI-206.27E8, NI-206.12G4, NI-206.18H2 or NI-206.6D3 or with Cy5 labelled 43A11 at four different antibody concentrations (0.1, 1, 10, and 100 nM) in seven different pH-adjusted PBS buffers (pH 7.4, 6.8, 6.6, 6.5, 6.4, 6.3 and 6.2). PBS buffers were adjusted to using MES monohydrate (Sigma Aldrich). Following incubation, cells were washed 3 times with 200 uL in matched pH-adjusted PBS, spun at 400G for 4 min, and resuspended in 200 μL of pH adjusted buffer.
To analyze antibody binding, fluorescent activated flow cytometry was performed using a BD Fortesa device for forward scatter, side scatter, and the mean fluorescent intensity (MFI) of the Cy5 channel was recorded using a […] laser excitation and 600/20 filter. Viable cells were gated by forward and side scatter, and singlets/doublet exclusion, and the MFI for Cy5 was quantified using FlowJo software Version 10.1.

[2] = target: T2, directly coated FAP (FAP); experiment: direct ELISA on directly coated FAP; type: binding; conditions: ELISA, varying antibody concentrations
Experimental: (§1) ELISA assays were performed with varying antibody concentrations to validate the binding of the exemplary antibodies of the present invention to FAP and to be able to determine their half maximal effective concentration (EC50). For the exemplary recombinant human NI-206-18H2, NI-206-20A8, NI-206-6D3, ‘NI-206-14C5, NI-206-34C11, NI-206.82C2, NI-206.59B4, NI-206.22F7, NI-206.27E8, NI-206.12G4 and NI-206.17A6 antibodies, 96-well microplates (Costar, Corning, USA) were coated with FAP, with a mixture of the 3 peptides or with BSA (Sigma-Aldrich, Buchs, Switzerland) diluted to a concentration of 5 μg/ml in carbonate ELISA coating buffer (15 mM Na2CO3, 35 mM NaHCO3, pH 9.4) for the direct ELISA. For the capture ELISA, the microplates were coated with mouse anti-His monoclonal antibody (Clontech) diluted to a concentration of 3 μg/ml in PBS, the plates were then blocked, FAP or BSA were diluted to a concentration of 2 μg/ml in PBS and added to the plates to be captured. The binding efficiency of the antibodies was then tested.
The EC50 values were estimated by a non-linear regression using GraphPad Prism (San Diego, USA) software. […] The binding of NI-206.12G4 towards sFAP was not tested.

BSA = target: T3, BSA (Bos taurus, UniProt P02769); experiment: ELISA control binding to BSA; parameters: species or system bovine
T3 construct: purchased Sigma-Aldrich
Experimental: as §1

T3 sequence (P02769 25-607): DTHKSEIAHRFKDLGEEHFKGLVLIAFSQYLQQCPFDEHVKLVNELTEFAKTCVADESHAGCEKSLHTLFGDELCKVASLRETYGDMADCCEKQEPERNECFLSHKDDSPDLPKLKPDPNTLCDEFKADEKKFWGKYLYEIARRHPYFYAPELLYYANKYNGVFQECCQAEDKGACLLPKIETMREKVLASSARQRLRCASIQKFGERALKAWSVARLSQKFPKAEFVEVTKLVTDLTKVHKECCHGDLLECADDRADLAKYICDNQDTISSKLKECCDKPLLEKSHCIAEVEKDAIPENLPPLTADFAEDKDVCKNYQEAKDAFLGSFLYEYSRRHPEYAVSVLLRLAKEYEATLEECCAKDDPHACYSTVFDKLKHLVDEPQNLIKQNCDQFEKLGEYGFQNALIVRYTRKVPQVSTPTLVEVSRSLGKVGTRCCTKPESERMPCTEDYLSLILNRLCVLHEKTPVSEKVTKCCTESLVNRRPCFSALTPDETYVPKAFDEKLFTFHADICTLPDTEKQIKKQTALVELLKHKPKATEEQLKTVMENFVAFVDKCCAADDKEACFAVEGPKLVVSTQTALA

Row | Molecule | paratope-specific avidity (ΔMFI) under acidic conditions vs. at pH 7.4 [1] | binding to the directly coated FAP [2] | binding to BSA (BSA)
1 | NI-206.6D3: human-derived recombinant anti-FAP antibody; VH SEQ ID NO: 49, VL SEQ ID NO: 51 (antibody, listed as Homo sapiens, V domains shown) VH: EVQLVESGGGLVKPGESLRLSCAASGFTFSKAWMNWVRQGPGKGLEWVGRVKSKTDGGTTDYAAPVKGRFTISRDDSKDTVFLQMNSLKTEDTAVYYCSIQFIVVGDRGRDDQYMDVWGKGTTVTVSS VL: SYVLTQPPSVSVSPGQTARITCSGDALPKQYAFWYQQKPGQAPVIMIYKDNQRPSGIPERFSGSSSGTTVTLTISGVQTEDEADYYCQSADSTNTHVVFGGGTKLTVL | increased | strongly and similarly bind | 
2 | NI-206.18H2: human-derived recombinant anti-FAP antibody; VH SEQ ID NO: 41, VL SEQ ID NO: 43 (antibody, listed as Homo sapiens, V domains shown) VH: QVQLQESGPRLVKPSETLSLTCTVSGYSISNGYYWGWIRQPPGQGLEWIASVWHSGNTYHNPSLKSRVTILVDTLKNQFSLNLKSVTAADTALYYCARSYTRNDVGAFETWGQGTMVTVSS VL: SYELTQPPSVSVSPGQTARIACSGDELPKRYAYWYQQKSGQAPVLVMYEDTKRPSGIPERLSGSSSGTVTTLTISGAQVEDEADYYCYSTAPSGNHTFVFGTGTRVTVL | increased | specifically, strongly and similarly bind | does not bind
3 | NI-206.82C2: human-derived recombinant anti-FAP antibody; VH SEQ ID NO: 2 or 4 (PIMC), VL SEQ ID NO: 6 (antibody, V domains shown) VH: QVQLQQSGPGLVKPSQTLSLTCAISGDSVSSNSVTWNWIRQSPSRGLEWLGRTYYRSKWYNDYAVSVKGRITINPDTSKNQFYLQLKSVTPEDAAVYYCARDSSILYGDYWGQGTLVTVSS VL: QAVLTQPSSLSASPGASASLTCTLPSGINVGTYRIFWFQQKPGSPPQYLLSYKSDSDNHQGSGVPSRFSGSKDASANAGILLISGLQSEDEADYYCMIWHSSAWVFGGGTKLTVL | increased | less efficiently | does not bind
